Results: publication PMC10213376 (Redox Biology, 2023)

Target: the molecule itself
Test: crystal structure

B1: Human catalase (CAT) (enzyme)
chain: MADSRDPASDQMQHWKEQRAAQKADVLTTGAGNPVGDKLNVITVGPRGPLLVQDVVFTDEMAHFDRERIPERVVHAKGAGAFGYFEVTHDITKYSKAKVFEHIGKKTPIAVRFSTVAGESGSADTVRDPRGFAVKFYTEDGNWDLVGNNTPIFFIRDPILFPSFIHSQKRNPQTHLKDPDMVWDFWSLRPESLHQVSFLFSDRGIPDGHRHMNGYGSHTFKLVNANGEAVYCKFHYKTDQGIKNLSVEDAARLSQEDPDYGIRDLFNAIATGKYPSWTFYIQVMTFNQAETFPFNPFDLTKVWPHKDYPLIPVGKLVLNRNPVNYFAEVEQIAFDPSNMPPGIEASPDKMLQGRLFAYPDTHRHRLGPNYLHIPVNCPYRARVANYQRDGPMCMQDNQGGAPNYYPNSFGAPEQQPSALEHSIQYSGEVRRFNTANDDNVTQVRAFYVNVLNEEQRKRLCENIAGHLKDAQIFIQKKAVKNFTEVHPDYGSHIQALLDKYNAEKPKNAIHTFVQSGSHLAAREKANL
For B1, the “stoichiometry N” value was 4.
